Test results as given in article PMC7805551.

Target: chicken MHF complex (MHF1/MHF2 heterotetramer) (chicken) (UniProt E1BSW7)
Assay: native gel or EMSA; 2 mg/ml FANCM–MHF or MHF mixed 1:1 with 10 mM Tris–HCl pH 8 or 10–60% MPD, 20°C for 60 min; 6% polyacrylamide TBE gel, 0.5x TBE, 4°C; bands cut out and analysed by SDS–PAGE; at 30% MPD a smeared band at the position of MHF

chicken FANCM (MHF interaction region, amino acids 660–804) (from UniProt A0A1D5PRR9 660-804) (domain or fragment)
percent of MHF without FANCM: 3%
